Results from patent US20230338565A1, “ANTIBODY DRUG CONJUGATE, PREPARATION METHOD THEREFOR AND USE THEREOF” (SICHUAN KELUN-BIOTECH BIOPHARMACEUTICAL CO., LTD., priority 2020, published 2023).

Legend:
[1] = biological target: T1, human Claudin 18.2 on cell membrane (Homo sapiens, UniProt P56856); assay: Affinity to HEK293T-Claudin 18.2 by flow cytometry; settings: binding to HEK293T-Claudin 18.2 cells
T1 construct: expressed in transfected cells
Procedure: (§1) The affinity of 2C6.9-hz21 to human Claudin 18.2 on cell membrane was detected using HEK293T-Claudin 18.2 cells. The specific procedures were as follows: HEK293T-Claudin 18.2 cells were detached and centrifuged, followed by being washed twice with PBS. And then the cells were resuspended in PBS containing 1% BSA and were plated into a 96-well tip bottom plate at 300000 cells per well in a volume of 50 μl for 20 wells in total. […] of 2C6.9-hz21 and IMAB362 antibody were separately then added with 11 concentrations starting from 1000 nM with three-fold dilution to each well. Human IgG was served as negative control. The reactions were mixed well and incubated for 1 h at 4° C. in the dark, followed by three times of washing with PBS, the FITC-labelled anti-human Fc secondary antibody (Biolegend, 409322) was added and incubated for 0.5 h at 4° C. in the dark. Detection was performed by flow cytometry (Beckman, Cytoflex) after being washed for three times with PBS.

[2] = biological target: T2, human Claudin 18.2 (Homo sapiens, UniProt P56856); assay: Cell ELISA on L929-Claudin 18.2 cells; settings: binding to L929-Claudin 18.2 cells, Cellular ELISA
T2 construct: expressed in transfected cells; cells formaldehyde-fixed for the cell ELISA
Procedure: Human Claudin18.2 belongs to the tetraspanin family and has a complex structure. Cell ELISA was thus carried out to maintain the structure of Claudin18.2. The stable cell lines L929-Claudin 18.2 constructed in 6.1 were used for detection. Specifically, L929-Claudin 18.2 adherent cells were detached by 2 mM EDTA treatment. The cells were resuspended and adjusted to 2×10^5/mL and 100 μL of the resuspension was plated into a 96-well plate and incubated overnight at 37° C. The next day, the media was removed, and the plate was washed with PBS once. 100 μL/well 4% formaldehyde was added to the plate. After 30 min of incubation at room temperature, formaldehyde was removed, followed by being washed twice with PBS. Blocking buffer (PBS containing 2% BSA) was then added to the plate at 100 μL/well, and incubated at 37° C. for 2 h. After removal of blocking buffer, 100 μL/well of serially diluted antibodies (starting from 1 μM, with 4-fold dilution, for a total of 11 concentrations) were added to the corresponding wells, which were incubated at 37° C. for 2 h afterwards. The plate was washed with 250 μL PBST for 5 times, and was allowed to stand for 2 min each time. […] The OD450 nm absorbance values were obtained on a plate reader (MD, SpectraMax M2) and the results were subjected to curve fitting by Graphpad Prism. […]

[3] = system: HEK293T-Claudin 18.2 cells; assay: ADCC, NK cell mediated killing assay; assay type: cell-based, human; settings: NK92MI-CD16a effector cells, LDH detection
Procedure: 2C6.9 belongs to IgG1 subtype and has relative strong antibody-dependent cell-mediated cytotoxicity (ADCC). NK cell mediated killing assay was used to determine the ADCC activity of 2C6.9. The specific procedures were as follows: HEK293T-Claudin 18.2 cells were harvested and centrifuged, followed by adjustment of cell density. 1×10^4/well of cells were plated on a plate and incubated overnight. The medium was removed on the next day. NK92MI-CD16a cells (Huabo Biopharm) were centrifuged, resuspended in MEMA medium and adjusted to 1×10^6/mL, then 50 μL/well cells were added to the corresponding wells. 2C6.9-hz21 and IMAB362 antibodies were diluted with MEMA medium. For HEK293T-Claudin18.2 cells, 10 antibody concentrations were tested, starting from 40 μg/mL with 5-fold dilution. For NUGC-4 cells, 11 antibody concentrations were tested, starting from 2 mg/mL with 5-fold dilution. 50 μL/well of the diluted antibodies were added to the corresponding wells and the reactions were left to stand in incubator at 37° C., 5% CO2 and incubated for 5.5 h. Lysis buffer was then added to the positive control well and incubated for another 0.5 h. 50 μL/well of Lactate Dehydrogenase (LDH) detection agent (DOJINDO LABORATORISE, CK12) were added to the wells and the absorbance at 490 nm were taken every 10 min on a microplate reader (MD, SpectraMax M2). […]

[4] = biological target: T3, human Claudin18.2 (human, UniProt P56856-2 1-261); assay: cell-based or functional assay
[5] = biological target: T3, human Claudin18.2; assay: cell-based or functional assay; remark: listed apart in the source
[6] = biological target: T3, human Claudin18.2; assay: cell ELISA on formaldehyde-fixed L929-Claudin 18.2 cells, HRP anti-human IgG
Procedure: (§2) Human Claudin18.2 belongs to the tetraspanin family and has a complex structure. Cell ELISA was thus carried out to maintain the structure of Claudin18.2. […] The cells were resuspended and adjusted to 2×10⁵/mL and 100 μL of the resuspension was plated into a 96-well plate and incubated overnight at 37° C. The next day, the media was removed, and the plate was washed with PBS once. 100 μL/well 4% formaldehyde was added to the plate. After 30 min of incubation at room temperature, formaldehyde was removed, followed by being washed twice with PBS. Blocking buffer (PBS containing 2% BSA) was then added to the plate at 100 μL/well, and incubated at 37° C. for 2 h. After removal of blocking buffer, 100 μL/well of serially diluted antibodies (starting from 1 μM, with 4-fold dilution, for a total of 11 concentrations) were added to the corresponding wells, which were incubated at 37° C. for 2 h afterwards. The plate was washed with 250 μL PBST for 5 times, and was allowed to stand for 2 min each time. 100 μL/well of horseradish peroxidase labeled anti-Human IgG secondary antibody (HRP-anti-Human IgG, Jackson ImmunoResearch, 109-035-003) diluted 1:10000 in PBS (containing 2% BSA) was added to the plate. […] The OD450 nm absorbance values were obtained on a plate reader (MD, SpectraMax M2) and the results were subjected to curve fitting by Graphpad Prism.

[7] = biological target: T3, human Claudin18.2; assay: flow cytometry on HEK293T-Claudin 18.2 cells, FITC anti-human Fc secondary antibody
Procedure: as §1, with “The” for “The affinity of 2C6.9-hz21 to human Claudin 18.2 on cell membrane was detected using HEK293T-Claudin 18.2 cells. The”

[8] = biological target: T3, human Claudin18.2; assay: cell-based or functional assay; remark: listed apart in the source
[9] = biological target: T4, human Claudin18.1 (human, UniProt P56856 1-261); assay: flow cytometry on HEK293T-human Claudin 18.1 cells, FITC anti-human Fc secondary antibody
T4 construct: whole, on cells
Procedure: The specificity of candidate antibodies was detected by FACS. […] After being washed twice with PBS, the cells were resuspended with PBS containing 1% BSA. 300000 cells for each cell line were added with the candidate antibodies at a final concentration of 1000 nM, mixed well, and incubated for 1 h at 4° C., protected from light. Then the cells were washed for three times with PBS and FITC-labeled anti-human Fc secondary antibody (BioLegend, 409322) was added, followed by 0.5 h of incubation at 4° C. in the dark. Detection was performed by flow cytometry (Beckman, Cytoflex) after being washed with PBS for three times.

[10] = biological target: T3, human Claudin18.2; assay: cell ELISA on L929-Claudin 18.2 cells
Procedure: as §2

Max MFI [1] | Max signal value (OD450) [2] | CDC activity, EC50 value [4] | ADCC activity, EC50 value [5] | EC50 [6] | EC50 [7] | 4-hour internalization ratio on NUGC-4 cells (flow cytometry) [8] | binding result [9] | binding result [10] | Molecule | Max. cytotoxicity (%) [3]
156715.7 | 0.53 |  |  |  |  |  |  |  | IMAB362: control anti-Claudin 18.2 antibody, sequences from patent CN 101312989 B [reference compound] | 20%
 |  | 3.32 µg/mL | 0.0577 µg/mL | 0.15 nM | 8.22 nM |  |  |  | IMAB362 (antibody, V domains shown) VH: QVQLQQPGAELVRPGASVKLSCKASGYTFTSYWINWVKQRPGQGLEWIGNIYPSDSYTNYNQKFKDKATLTVDKSSSTAYMQLSSPTSEDSAVYYCTRSWRGNSFDYWGQGTTLTVSS VL: DIVMTQSPSSLTVTAGEKVTMSCKSSQSLLNSGNQKNYLTWYQQKPGQPPKLLIYWASTRESGVPDRFTGSGSGTDFTLTISSVQAEDLAVYYCQNDYSYPFTFGSGTKLEIKR | 
 |  | 1.36 µg/mL | 0.0677 µg/mL | 0.12 nM | 5.77 nM | 37.8% | no binding (tested: 1000 nM) |  | humanized antibody 2C6.9-hz21 (antibody, human IgG1, kappa, V domains shown, Humanized from murine 2C6.9M; Expressed in Expi293F cells and purified on protein A; also called 2C6.9 mAb; humanized monoclonal antibody 2C6.9) VH: QVQLQESGPGLVKPSETLSLTCTVSGFSLTRYGVSWIRQPPGKGLEWIGVIWGEGNTNYNPSLKSRVTISKDSSKSQVSLKLSSVTAADTAVYYCARVNFGNALDYWGQGTLVTVSS VL: DIVMTQSPDSLAVSLGERATINCKSSQSLLNSGNQKNYLTWYQQKPGQPPKLLIYWASTRDSGVPDRFSGSGSGTDFTLTISSLQAEDVAVYYCQNDFIFPLTFGGGTKVEIKR | 
 |  |  |  |  |  |  |  | binds | humanized antibody 2C6.9-hz11 (antibody, human IgG1, kappa, V domains shown, Human IgG1 / kappa) VH: QVQLQESGPGLVKPSETLSLTCTVSGFSLTRYGVSWIRQPPGKGLEWIGVIWGDGNTNYNPSLKSRVTISKDSSKSQVSLKLSSVTAADTAVYYCARVNFGNALDYWGQGTLVTVSS VL: DIVMTQSPDSLAVSLGERATINCKSSQSLLNSGNQKNYLTWYQQKPGQPPKLLIYWASTRDSGVPDRFSGSGSGTDFTLTISSLQAEDVAVYYCQNDFIFPLTFGGGTKVEIKR | 
